# B1: Heat shock factor protein 2 (Homo sapiens), Q03933 (parent)
# chain: MKQSSNVPAFLSKLWTLVEETHTNEFITWSQNGQSFLVLDEQRFAKEILPKYFKHNNMASFVRQLNMYGFRKVVHIDSGIVKQERDGPVEFQHPYFKQGQDDLLENIKRKVSSSKPEENKIRQEDLTKIISSAQKVQIKQETIESRLSELKSENESLWKEVSELRAKHAQQQQVIRKIVQFIVTLVQNNQLVSLKRKRPLLLNTNGAQKKNLFQHIVKEPTDNHHHKVPHSRTEGLKPRERISDDIIIYDVTDDNADEENIPVIPETNEDVISDPSNCSQYPDIVIVEDDNEDEYAPVIQSGEQNEPARESLSSGSDGSSPLMSSAVQLNGSSSLTSEDPVTMMDSILNDNINLLGKVELLDYLDSIDCSLEDFQAMLSGRQFSIDPDLLVDLFTSSVQMNPTDYINNTKSENKGLETTKNNVVQPVSEEGRKSKSKPDKQLIQYTAFPLLAFLDGNPASSVEQASTTASSEVLSSVDKPIEVDELLDSSLDPEPTQSKLVRLEPLTEAEASEATLFYLCELAPAPLDSDMPLLDS
# B2: Isoform 1 of Destrin (Homo sapiens), P60981-1 (parent)
# chain: MASGVQVADEVCRIFYDMKVRKCSTPEEIKKRKKAVIFCLSADKKCIIVEEGKEILVGDVGVTITDPFKHFVGMLPEKDCRYALYDASFETKESRKEELMFFLWAPELAPLKSKMIYASSKDAIKKKFQGIKHECQANGPEDLNRACIAEKLGGSLIVAFEGCPV
# B3: RUN and FYVE domain-containing protein 1 (Homo sapiens), Q96T51-2 (parent)
# chain: MMEERANLMHMMKLSIKVLLQSALSLGRSLDADHAPLQQFFVVMEHCLKHGLKVKKSFIGQNKSFFGPLELVEKLCPEASDIATSVRNLPELKTAVGRGRAWLYLALMQKKLADYLKVLIDNKHLLSEFYEPEALMMEEEGMVIVGLLVGLNVLDANLCLKGEDLDSQVGVIDFSLYLKDVQDLDGGKEHERITDVLDQKNYVEELNRHLSCTVGDLQTKIDGLEKTNSKLQEELSAATDRICSLQEEQQQLREQNELIRERSEKSVEITKQDTKVELETYKQTRQGLDEMYSDVWKQLKEEKKVRLELEKELELQIGMKTEMEIAMKLLEKDTHEKQDTLVALRQQLEEVKAINLQMFHKAQNAESSLQQKNEAITSFEGKTNQVMSSMKQMEERLQHSERARQGAEERSHKLQQELGGRIGALQLQLSQLHEQCSSLEKELKSEKEQRQALQRELQHEKDTSSLLRMELQQVEGLKKELRELQDEKAELQKICEEQEQALQEMGLHLSQSKLKMEDIKEVNQALKGHAWLKDDEATHCRQCEKEFSISRRKHHCRNCGHIFCNTCSSNELALPSYPKPVRVCDSCHTLLLQRCSSTAS
# partner: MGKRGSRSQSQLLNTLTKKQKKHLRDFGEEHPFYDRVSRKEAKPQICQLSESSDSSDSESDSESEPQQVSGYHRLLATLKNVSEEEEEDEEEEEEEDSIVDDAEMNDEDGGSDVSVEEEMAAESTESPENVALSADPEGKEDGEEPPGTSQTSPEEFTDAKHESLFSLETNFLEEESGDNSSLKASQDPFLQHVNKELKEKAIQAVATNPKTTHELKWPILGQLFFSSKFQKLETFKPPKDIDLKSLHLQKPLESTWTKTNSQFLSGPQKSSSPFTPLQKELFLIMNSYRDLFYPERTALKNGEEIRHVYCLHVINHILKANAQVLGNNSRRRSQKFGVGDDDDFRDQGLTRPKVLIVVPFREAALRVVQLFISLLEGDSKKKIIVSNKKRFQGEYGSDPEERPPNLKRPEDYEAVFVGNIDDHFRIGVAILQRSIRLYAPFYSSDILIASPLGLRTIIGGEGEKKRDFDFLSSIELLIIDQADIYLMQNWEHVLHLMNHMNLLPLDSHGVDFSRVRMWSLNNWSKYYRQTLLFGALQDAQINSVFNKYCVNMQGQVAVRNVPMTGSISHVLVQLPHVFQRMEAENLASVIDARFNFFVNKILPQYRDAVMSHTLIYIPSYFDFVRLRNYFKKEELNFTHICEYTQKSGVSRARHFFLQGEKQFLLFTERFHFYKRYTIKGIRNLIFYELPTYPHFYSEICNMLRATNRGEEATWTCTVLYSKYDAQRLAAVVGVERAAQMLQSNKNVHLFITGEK
# B4: "N-acyl-aromatic-L-amino acid amidohydrolase (carboxylate-forming)" (Homo sapiens), Q96HD9 (parent)
# chain: MCSLPVPREPLRRVAVTGGTHGNEMSGVYLARHWLHAPAELQRASFSAVPVLANPAATSGCRRYVDHDLNRTFTSSFLNSRPTPDDPYEVTRARELNQLLGPKASGQAFDFVLDLHNTTANMGTCLIAKSSHEVFAMHLCRHLQLQYPELSCQVFLYQRSGEESYNLDSVAKNGLGLELGPQPQGVLRADIFSRMRTLVATVLDFIELFNQGTAFPAFEMEAYRPVGVVDFPRTEAGHLAGTVHPQLQDRDFQPLQPGAPIFQMFSGEDLLYEGESTVYPVFINEAAYYEKGVAFVQTEKFTFTVPAMPALTPAPSPAS
# B5: Protein BANP (Homo sapiens), Q8N9N5 (parent)
# chain: MMSEHDLADVVQIAVEDLSPDHPVVLENHVVTDEDEPALKRQRLEINCQDPSIKTICLRLDSIEAKLQALEATCKSLEEKLDLVTNKQHSPIQVPMVAGSPLGATQTCNKVRCVVPQTTVILNNDRQNAIVAKMEDPLSNRAPDSLENVISNAVPGRRQNTIVVKVPGQEDSHHEDGESGSEASDSVSSCGQAGSQSIGSNVTLITLNSEEDYPNGTWLGDENNPEMRVRCAIIPSDMLHISTNCRTAEKMALTLLDYLFHREVQAVSNLSGQGKHGKKQLDPLTIYGIRCHLFYKFGITESDWYRIKQSIDSKCRTAWRRKQRGQSLAVKSFSRRTPNSSSYCPSEPMMSTPPPASELPQPQPQPQALHYALANAQQVQIHQIGEDGQVQVGHLHIAQVPQGEQVQITQDSEGNLQIHHVGQDGQLLEATRIPCLLAPSVFKASSGQVLQGAQLIAVASSDPAAAGVDGSPLQGSDIQVQYVQLAPVSDHTAGAQTAEALQPTLQPEMQLEHGAIQIQ
# partner: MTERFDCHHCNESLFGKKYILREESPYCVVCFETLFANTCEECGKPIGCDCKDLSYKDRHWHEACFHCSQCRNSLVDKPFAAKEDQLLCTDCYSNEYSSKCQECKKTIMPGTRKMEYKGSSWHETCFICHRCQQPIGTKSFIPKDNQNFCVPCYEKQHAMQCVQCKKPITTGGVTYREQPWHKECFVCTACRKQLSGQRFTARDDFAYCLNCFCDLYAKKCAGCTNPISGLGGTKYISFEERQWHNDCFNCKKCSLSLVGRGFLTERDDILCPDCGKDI
# B6: MYG1 exonuclease (Homo sapiens), Q9HB07 (parent)
# chain: MGHRFLRGLLTLLLPPPPLYTRHRMLGPESVPPPKRSRSKLMAPPRIGTHNGTFHCDEALACALLRLLPEYRDAEIVRTRDPEKLASCDIVVDVGGEYDPRRHRYDHHQRSFTETMSSLSPGKPWQTKLSSAGLIYLHFGHKLLAQLLGTSEEDSMVGTLYDKMYENFVEEVDAVDNGISQWAEGEPRYALTTTLSARVARLNPTWNHPDQDTEAGFKRAMDLVQEEFLQRLDFYQHSWLPARALVEEALAQRFQVDPSGEIVELAKGACPWKEHLYHLESGLSPPVAIFFVIYTDQAGQWRIQCVPKEPHSFQSRLPLPEPWRGLRDEALDQVSGIPGCIFVHASGFIGGHRTREGALSMARATLAQRSYLPQIS
# partner: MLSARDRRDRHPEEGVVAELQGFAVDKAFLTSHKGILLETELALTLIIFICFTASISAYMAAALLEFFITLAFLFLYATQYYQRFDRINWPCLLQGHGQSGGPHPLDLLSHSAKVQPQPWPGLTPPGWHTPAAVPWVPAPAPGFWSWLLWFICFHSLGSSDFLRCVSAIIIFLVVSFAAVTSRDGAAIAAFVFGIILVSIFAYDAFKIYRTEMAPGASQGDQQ
# B7: MIF4G domain-containing protein (Homo sapiens), A9UHW6 (parent)
# chain: MGEPSREEYKIQSFDAETQQLLKTALKDPGAVDLEKVANVIVDHSLQDCVFSKEAGRMCYAIIQAESKQAGQSVFRRGLLNRLQQEYQAREQLRARSLQGWVCYVTFICNIFDYLRVNNMPMMALVNPVYDCLFRLAQPDSLSKEEEVDCLVLQLHRVGEQLEKMNGQRMDELFVLIRDGFLLPTGLSSLAQLLLLEIIEFRAAGWKTTPAAHKYYYSEVSD
# B8: Sorting nexin-15 (Homo sapiens), Q9NRS6 (parent)
# chain: MSRQAKDDFLRHYTVSDPRTHPKGYTEYKVTAQFISKKDPEDVKEVVVWKRYSDFRKLHGDLAYTHRNLFRRLEEFPAFPRAQVFGRFEASVIEERRKGAEDLLRFTVHIPALNNSPQLKEFFRGGEVTRPLEVSRDLHILPPPLIPTPPPDDPRLSQLLPAERRGLEELEVPVDPPPSSPAQEALDLLFNCESTEEASGSPARGPLTEAELALFDPFSKEEGAAPSPTHVAELATMEVESARLDQEPWEPGGQEEEEDGEGGPTPAYLSQATELITQALRDEKAGAYAAALQGYRDGVHVLLQGVPSDPLPARQEGVKKKAAEYLKRAEEILRLHLSQLPP
# B9: Inositol monophosphatase 1 (Homo sapiens), P29218-1 (parent)
# chain: MADPWQECMDYAVTLARQAGEVVCEAIKNEMNVMLKSSPVDLVTATDQKVEKMLISSIKEKYPSHSFIGEESVAAGEKSILTDNPTWIIDPIDGTTNFVHRFPFVAVSIGFAVNKKIEFGVVYSCVEGKMYTARKGKGAFCNGQKLQVSQQEDITKSLLVTELGSSRTPETVRMVLSNMEKLFCIPVHGIRSVGTAAVNMCLVATGGADAYYEMGIHCWDVAGAGIIVTEAGGVLMDVTGGPFDLMSRRVIAANNRILAERIAKEIQVIPLQRDDED
# partner: B9 chain
# B10: Phospholipid scramblase 4 (Homo sapiens), Q9NRQ2 (parent)
# chain: MSGVVPTAPEQPAGEMENQTKPPDPRPDAPPEYNSHFLPGPPGTAVPPPTGYPGGLPMGYYSPQQPSTFPLYQPVGGIHPVRYQPGKYPMPNQSVPITWMPGPTPMANCPPGLEYLVQLDNIHVLQHFEPLEMMTCFETNNRYDIKNNSDQMVYIVTEDTDDFTRNAYRTLRPFVLRVTDCMGREIMTMQRPFRCTCCCFCCPSARQELEVQCPPGVTIGFVAEHWNLCRAVYSIQNEKKENVMRVRGPCSTYGCGSDSVFEVKSLDGISNIGSIIRKWNGLLSAMADADHFDIHFPLDLDVKMKAMIFGACFLIDFMYFERSPPQRSR
# Variants of: B1
# Conditions: with mtus2_human MTUS2, Q5JR59
row,Variant,effect of a mutation on the interaction
1,V287I,with no effect

# Variants of: B1
# Conditions: with nup62_human NUP62, P37198
# nup62_human NUP62, P37198, sequence (P37198 whole entry): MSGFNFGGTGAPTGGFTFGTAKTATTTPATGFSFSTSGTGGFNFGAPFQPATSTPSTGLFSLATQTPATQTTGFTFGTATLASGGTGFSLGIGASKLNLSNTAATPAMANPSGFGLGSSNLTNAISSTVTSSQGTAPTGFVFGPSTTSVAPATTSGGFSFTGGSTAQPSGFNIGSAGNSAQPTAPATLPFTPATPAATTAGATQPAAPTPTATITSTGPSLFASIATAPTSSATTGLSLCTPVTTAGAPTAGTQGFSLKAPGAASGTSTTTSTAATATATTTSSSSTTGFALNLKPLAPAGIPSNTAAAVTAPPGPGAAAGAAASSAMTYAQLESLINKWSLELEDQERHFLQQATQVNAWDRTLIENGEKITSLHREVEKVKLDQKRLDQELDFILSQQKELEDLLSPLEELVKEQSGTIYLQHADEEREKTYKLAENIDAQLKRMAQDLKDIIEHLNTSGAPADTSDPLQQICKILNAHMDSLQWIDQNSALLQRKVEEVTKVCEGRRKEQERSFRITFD
row,Variant,effect of a mutation on the interaction
1,V287I,with no effect

# Variants of: B1
# Conditions: with wdr5_human WDR5, P61964
row,Variant,effect of a mutation on the interaction
1,V287I,with no effect

# Variants of: B1
# Conditions: with tpm3_human TPM3, P06753
# tpm3_human TPM3, P06753, sequence (P06753 whole entry): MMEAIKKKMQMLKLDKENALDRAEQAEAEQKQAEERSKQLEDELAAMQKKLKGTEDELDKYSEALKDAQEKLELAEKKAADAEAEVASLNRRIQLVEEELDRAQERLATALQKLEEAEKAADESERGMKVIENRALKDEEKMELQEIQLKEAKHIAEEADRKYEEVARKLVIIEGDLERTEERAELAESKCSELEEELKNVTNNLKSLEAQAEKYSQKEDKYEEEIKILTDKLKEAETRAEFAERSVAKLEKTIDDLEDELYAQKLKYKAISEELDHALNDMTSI
row,Variant,effect of a mutation on the interaction
1,V287I,with no effect

# Variants of: B2
# Conditions: with cof2_human CFL2, Q9Y281
row,Variant,effect of a mutation on the interaction
1,G139E,with no effect

# Variants of: B2
# Conditions: with actb_human ACTB
row,Variant,effect of a mutation on the interaction
1,G139E,with no effect

# Variants of: B2
# Conditions: with actg_human ACTG1, P63261
row,Variant,effect of a mutation on the interaction
1,G139E,with no effect

# Variants of: B3
# Conditions: with utp25_human UTP25, Q68CQ4
row,Variant,effect of a mutation on the interaction
1,C159F,with no effect

# Variants of: B4
# Conditions: with gors2_human GORASP2, Q9H8Y8
row,Variant,effect of a mutation on the interaction
1,R8Q,with no effect

# Variants of: B5
# Conditions: with fhl2_human FHL2, Q14192
row,Variant,effect of a mutation on the interaction
1,P348S,with no effect

# Variants of: B6
# Conditions: with cklf5_human CMTM5, Q96DZ9
row,Variant,effect of a mutation on the interaction
1,R188Q,with no effect
2,R243Q,with no effect

# Variants of: B7
# Conditions: with hgs_human HGS
row,Variant,effect of a mutation on the interaction
1,E160K,with no effect

# Variants of: B8
# Conditions: with reep6_human REEP6, Q96HR9
# reep6_human REEP6, Q96HR9, sequence (Q96HR9 whole entry): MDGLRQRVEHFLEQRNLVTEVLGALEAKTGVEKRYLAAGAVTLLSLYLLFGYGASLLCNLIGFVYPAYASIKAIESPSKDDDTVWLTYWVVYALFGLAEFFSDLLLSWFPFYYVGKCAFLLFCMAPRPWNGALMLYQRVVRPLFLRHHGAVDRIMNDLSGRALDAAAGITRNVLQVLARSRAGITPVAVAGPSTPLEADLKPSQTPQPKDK
row,Variant,effect of a mutation on the interaction
1,R314C,with no effect
2,R334C,with no effect

# Variants of: B8
# Conditions: with ar6p1_human ARL6IP1, Q15041
# ar6p1_human ARL6IP1, Q15041, sequence (Q15041 whole entry): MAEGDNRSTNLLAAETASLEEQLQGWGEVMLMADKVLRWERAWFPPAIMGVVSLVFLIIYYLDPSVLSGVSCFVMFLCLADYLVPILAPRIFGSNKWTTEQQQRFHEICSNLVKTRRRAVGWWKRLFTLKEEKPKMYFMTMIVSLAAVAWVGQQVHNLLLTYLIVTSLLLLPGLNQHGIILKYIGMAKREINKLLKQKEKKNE
row,Variant,effect of a mutation on the interaction
1,R314C,with no effect
2,R334C,with no effect

# Variants of: B9
# Conditions: with impa1_human IMPA1, P29218
row,Variant,effect of a mutation on the interaction
1,G164S,with no effect

# Variants of: B10
# Conditions: with pls1_human PLSCR1, O15162
# pls1_human PLSCR1, O15162, sequence (O15162 whole entry): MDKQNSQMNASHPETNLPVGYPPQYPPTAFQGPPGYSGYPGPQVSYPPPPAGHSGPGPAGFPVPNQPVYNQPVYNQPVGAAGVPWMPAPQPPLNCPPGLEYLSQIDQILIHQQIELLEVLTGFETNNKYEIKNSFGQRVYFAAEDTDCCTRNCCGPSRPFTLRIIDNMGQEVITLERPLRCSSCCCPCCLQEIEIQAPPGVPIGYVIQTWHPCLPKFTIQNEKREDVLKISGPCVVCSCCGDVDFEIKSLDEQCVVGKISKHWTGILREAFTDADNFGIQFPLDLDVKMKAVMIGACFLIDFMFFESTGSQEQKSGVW
row,Variant,effect of a mutation on the interaction
1,A107S,with no effect
2,N34S,with no effect

# Variants of: B10
# Conditions: with mtus2_human MTUS2, Q5JR59
# Target sequence in this assay (Q5JR59 whole entry): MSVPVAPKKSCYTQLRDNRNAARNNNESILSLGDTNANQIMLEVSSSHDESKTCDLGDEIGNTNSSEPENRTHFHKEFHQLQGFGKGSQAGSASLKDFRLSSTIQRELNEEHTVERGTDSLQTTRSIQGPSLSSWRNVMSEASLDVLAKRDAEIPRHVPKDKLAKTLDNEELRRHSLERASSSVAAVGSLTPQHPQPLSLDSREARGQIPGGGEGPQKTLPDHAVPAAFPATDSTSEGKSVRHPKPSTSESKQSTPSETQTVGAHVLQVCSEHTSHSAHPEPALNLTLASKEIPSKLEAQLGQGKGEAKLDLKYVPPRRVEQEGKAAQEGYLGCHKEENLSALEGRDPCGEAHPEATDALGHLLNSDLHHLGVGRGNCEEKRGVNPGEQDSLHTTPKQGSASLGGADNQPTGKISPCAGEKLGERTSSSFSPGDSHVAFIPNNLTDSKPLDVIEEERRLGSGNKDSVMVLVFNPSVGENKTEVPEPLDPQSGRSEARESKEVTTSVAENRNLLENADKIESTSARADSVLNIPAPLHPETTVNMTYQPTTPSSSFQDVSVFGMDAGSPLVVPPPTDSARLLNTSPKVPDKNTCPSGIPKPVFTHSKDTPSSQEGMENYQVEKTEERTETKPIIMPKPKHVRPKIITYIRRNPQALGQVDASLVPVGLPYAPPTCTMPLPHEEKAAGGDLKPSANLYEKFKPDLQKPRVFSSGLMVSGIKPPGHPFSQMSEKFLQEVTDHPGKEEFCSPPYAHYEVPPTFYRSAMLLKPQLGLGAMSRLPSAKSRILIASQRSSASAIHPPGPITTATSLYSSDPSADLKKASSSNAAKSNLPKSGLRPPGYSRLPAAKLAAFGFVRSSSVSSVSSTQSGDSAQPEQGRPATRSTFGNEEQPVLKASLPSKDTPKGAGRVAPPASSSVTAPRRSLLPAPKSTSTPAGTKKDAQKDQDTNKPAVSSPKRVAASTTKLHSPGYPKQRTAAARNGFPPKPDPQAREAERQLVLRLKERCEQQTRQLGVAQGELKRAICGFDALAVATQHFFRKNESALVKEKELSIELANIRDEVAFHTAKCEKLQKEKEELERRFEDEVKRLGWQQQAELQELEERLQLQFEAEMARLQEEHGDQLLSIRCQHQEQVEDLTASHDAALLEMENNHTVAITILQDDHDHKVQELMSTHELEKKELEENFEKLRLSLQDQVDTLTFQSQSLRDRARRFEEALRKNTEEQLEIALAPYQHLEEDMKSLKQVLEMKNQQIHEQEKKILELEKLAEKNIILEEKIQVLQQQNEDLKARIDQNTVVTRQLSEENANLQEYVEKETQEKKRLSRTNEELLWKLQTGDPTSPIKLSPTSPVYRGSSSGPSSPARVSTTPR
row,Variant,effect of a mutation on the interaction
1,A107S,with no effect
2,N34S,with no effect

# Variants of: B10
# Conditions: with nt2na_human NOTCH2NLA
row,Variant,effect of a mutation on the interaction
1,A107S,with no effect
2,N34S,with no effect

# — IntAct's records for PubMed 31515488
